Assay: soluble on expression in E. coli; label from the status in PepcDB or PDB records
With “GSMAAAGNKSINAKLVLLGDVGAGKSSLVLRFVKDQFVEFQESTIGAAFFSQTLAVNDATVKFEIWDTAGQERYHSLAPMYYRGAAAAIIVFDVTNQASFERAKKWVQELQAQGNPNMVMALAGNKSDLLDARKVTAEDAQTYAQENGLFFMETSAKTATNVKEIFYEIARRLPRVQPTEN” the “soluble on expression in E. coli” value was “soluble”.
For “MIRIDVVLPAYRPGQGWEREAISRLTALSDSIPDVTFRIFIVPDGSNEGHSDEVRSHWATSPWEVIYCDYAKNRGKGFAVRYGVGQTDAPFVLYTDYDLPFTLDSYKQVIEALLEGADVVISRREPESYGKKIRFKRKMLSDFSHFVNKFFFLPTTDTQGGLKGFSSTGRFIFLQTRIDSFLFDTEFICLAKRKKVCIAVVSGSIRPDISLSVMKAKTILREVYKIPKLIKARWFS”, the “soluble on expression in E. coli” value was “not soluble”.
For “MEKIMPEEEYSEFKELILQKELHVVYALSHVCGQDRTLLASILLRIFLHEKLESLLLCTLNDREISMEDEATTLFRATTLASTLMEQYMKATATQFVHHALKDSILKIMESKQSCELSPSKLEKNEDVNTNLTHLLNILSELVEKIFMASEILPPTLRYIYGCLQKSVQHKWPTNTTMRTRVVSGFVFLRLICPAILNPRMFNIISDSPSPIAARTLILVAKSVQNLANLVEFGAKEPYMEGVNPFIKSNKHRMIMFLDELGNVPELPDTTEHSRTDLSRDLAALHEICVAHSDELRTLSNERGAQQHVLKKLLAITELLQQKQNQYTKTNDVR”, the “soluble on expression in E. coli” value was “soluble”.
With “MAGLTRALVARHALGRAEAYDAALLDVAQDHLLYLLSQTVQFGDNRLVFKGGTSLRKCRLGNVGRFSTDLDFSAPDDEVVLEVCELIDGARVGGFEFGVQSTRGDGRHWQLRVRHTELGEPRIVASVEFARRPLALPSELLAFIQLPIHKAYGFGLPTLPVVAEAEACAEKLARYRRVALARDLYDLNHFASRTIDEPLVRRLWVLKVWGDVVDDRRGTRPLRVEDVLAARSEHDFQPDSIGVLTRPVAMAAWEARVRKRFAFLTDLDADEQRWAACDERHRREVENALAVLRS” the “soluble on expression in E. coli” value was “soluble”.
With “MGSDKIHHHHHHMKVKKWVTQDFPMVEESATVRECLHRMRQYQTNECIVKDREGHFRGVVNKEDLLDLDLDSSVFNKVSLPDFFVHEEDNITHALLLFLEHQEPYLPVVDEEMRLKGAVSLHDFLEALIEALAMDVPGIRFSVLLEDKPGELRKVVDALALSNINILSVITTRSGDGKREVLIKVDAVDEGTLIKLFESLGIKIESIEKEEGF” the “soluble on expression in E. coli” value was “soluble”.
With “MGSDKIHHHHHHMNDLLPFLAQVSLFKGIETEELPKMLNRLNARKVSYKKNDVILREGQSVHSVGIMLSGKVKVVKEDFKGNTNVMTFIEPGAMFAEAYACTQTANLPFTVLSVMETKILWIDYRKIISTCTSACESHEKLIENMMKALASKSILLNQKIEHISKRTTQEKLLTYLFDQSKKSGSNEFEIPFSRQELADYLCVDRSAMSNELCKLQREGVLNFHLNHFKLSKSSSEAQL” the “soluble on expression in E. coli” value was “not soluble”.
In the case of “MIQTPYYLIDADRLRQNMAVVDRLRQASGAKALLALKCFATWPAFEHMRDHMDGTTSSSLYELRLGREKFGKETHAYSVAWPDHEIDEAVGYADKIIFNSVGQLARFRNRTGGIARGLRLNPGLSTSGFDLADPARPFSRLGEWSAEKIEAVLPDISGVMIHYNCENADVDLFERQLSEIEGRFGAILDRLDWVSLGGGIHFTGEGYPVDRLAARLKAFAAAHGVQVYLEPGEAAITRSATLEVTVLDLLDNGKQLAIVDSSVEAHMLDLLIYRQSAKVEPDAGDHSYMVCGKSCLAGDIFGEFRFAQPLQVGDRLSIADAAGYTMVKKNWFNGVKMPSIVIREPDGSLRVAREFGYGDYASSLG”, the “soluble on expression in E. coli” value is reported as “not soluble”.
For “MGSDKIHHHHHHMTETTSQMRREVLEIPAAIDRLLSQGTPEIARIAAAVAKADPRFAVTVARGSSDHACTFLKYALELELGLPVASIGPSVASIYGAQLKLANSITLSVSQSGKSPDIVAMSRAATEGDSFTVAITNDAQSPLSDASSHTIDIHAGPEISVAATKTFVTSAAAGLILLAEWKDDDILRAALRGLPECLSKAATHDWPDLRAAIGSASSLFTLGRGPAWAISNEAALKFKETCQIHAESYSSAEVLHGPVSIVGGGFPVLCFASGDAAEASVTDVADQLAAKGARVFVTSDKADTAHCLPHVRTGHPLTDPLALIVSFYAMIEKVAAERGVNPDAPRHLNKVTETV”, the “soluble on expression in E. coli” value was “not soluble”.
For “SQFDILCKTPPKVLVRQFVERFERPSGEKIASCAAELTYLCWMITHNGTAIKRATFMSYNTIISNSLSFDIVNKSLQFKYKTQKATILEASLKKLIPAWEFTIIPYNGQKHQSDITDIVSSLQLQFESSEEADKGNSHSKKMLKALLSEGESIWEITEKILNSFEYTSRFTKTKTLYQFLFLATFINCGRFSDIKNVDPKSFKLVQNKYLGVIIQCLVTETKTSVSRHIYFFSARGRIDPLVYLDEFLRNSEPVLKRVNRTGNSSSNKQEYQLLKDNLVRSYNKALKKNAPYPIFAIKNGPKSHIGRHLMTSFLSMKGLTELTNVVGNFSDKRASAVARTTYTHQITAIPDHYFALVSRYYAYDPISKEMIALKDETNPIEEWQHIEQLKGSAEGSIRYPAWNGIISQEVLDYLSSYINRRIGHHHHHH”, the “soluble on expression in E. coli” value was “soluble”.
With “MGSDKIHHHHHHMSLPGSKLEEARRLVNEKQYNEAEQVYLSLLDKDSSQSSAAAGASVDDKRRNEQETSILELGQLYVTMGAKDKLREFIPHSTEYMMQFAKSKTVKVLKTLIEKFEQVPDSLDDQIFVCEKSIEFAKREKRVFLKHSLSIKLATLHYQKKQYKDSLALINDLLREFKKLDDKPSLVDVHLLESKVYHKLRNLAKSKASLTAARTAANSIYCPTQTVAELDLMSGILHCEDKDYKTAFSYFFESFESYHNLTTHNSYEKACQVLKYMLLSKIMLNLIDDVKNILNAKYTKETYQSRGIDAMKAVAEAYNNRSLLDFNTALKQYEKELMGDELTRSHFNALYDTLLESNLCKIIEPFECVEISHISKIIGLDTQQVEGKLSQMILDKIFYGVLDQGNGWLYVYETPNQDATYDSALELVGQLNKVVDQLFEKASVLY” the “soluble on expression in E. coli” value was “not soluble”.
With “MSLELKYKIGFPSLYYPKISLADRIDAAAEKFGEKTAIISAEPKFPSEFPESMNFLEICEVTKKLASGISRKGVRKGEHVGVCIPNSIDYVMTIYALWRVAATPVPINPMYKSFELEHILNDSEATTLVVHSMLYENFKPVLEKTGVERVFVVGGEVNSLSEVMDSGSEDFENVKVNPEEDVALIPYTGGTTGMPKGVMLTHFNLAANALQLAVATGLSHMDTIVGCMPMFHSAEFGLVNLMVTVGNEYVVMGMFNQEMLAENIEKYKGTFSWAVPPALNVLVNTLESSNKTYDWSYLKVFATGAWPVAPALVEKLLKLAAEKCNNPRLRHNQIWGMTEACPMVTTNPPLRLDKSTTQGVPMSDIELKVISLEDGRELGVGESGEIVIRGPNIFKGYWKREKENQECWWYDEKGRKFFRTGDVGFIDEEGFLHFQDRVKEVIKYKGYTIAPFELEALLMKHEAVMDVAVIGKPDEEAGEVPKAFIVLKPEYRGKVDEEDIIEWVRERISGYKRVREVEFVEELPRTASGKLLRRLLREKEAEGHHHHHH” the “soluble on expression in E. coli” value was “soluble”.
In the case of “VSTTPAAGVLDTSVFIATESGRQLDEALIPDRVATTVVTLAELRVGVLAAATTDIRAQRLATLESVADMETLPVDDDAARMWARLRIHLAESGRRVRINDLWIAAVAASRALPVITQDDDFAALDGAASVEIIRV”, the “soluble on expression in E. coli” value is reported as “not soluble”.
In the case of “MKLQTTYPSNNYPIYVEHGAIKYIGTYLNQFDQSFLLIDEYVNQYFANKFDDILSYENVHKVIIPAGEKTKTFEQYQETLEYILSHHVTRNTAIIAVGGGATGDFAGFVAATLLRGVHFIQVPTTILAHDSSVGGKVGINSKQGKNLIGAFYRPTAVIYDLDFLKTLPFKQILSGYAEVYKHALLNGESATQDIEQHFKDREILQSLNGMDKYIAKGIETKLDIVVADEKEQGVRKFLNLGHTFGHAVEYYHKIPHGHAVMVGIIYQFIVANALFDSKHDISHYIQYLIQLGYPLDMITDLDFETLYQYMLSDKKNDKQGVQMVLMRQFGDIVVQHVDQLTLQHACEQLKTYFK”, the “soluble on expression in E. coli” value is reported as “soluble”.
In the case of “MPTISRSALVMYSVDQMYQLINDIPAYPKFLPDCNDSKVIDQDEQSVTAALLVSKGGLSKWFTTKNTLISNEKIHLSLVDGPFKKLEGYWLLTPLSDEACKVSLELEYEFSNKLVSLAFGKVFGHFSNSLVQVFTQRAKEIYGVNVLEHHHHHH”, the “soluble on expression in E. coli” value is reported as “soluble”.
With “MGSDKIHHHHHHMFRIQLRTMSSKTCKSDYPKEFVSFLNSSHSPYHTVHNIKKHLVSNGFKELSERDSWAGHVAQKGKYFVTRNGSSIIAFAVGGKWEPGNPIAITGAHTDSPALRIKPISKRVSEKYLQVGVETYGGAIWHSWFDKDLGVAGRVFVKDAKTGKSIARLVDLNRPLLKIPTLAIHLDRDVNQKFEFNRETQLLPIGGLQEDKTEAKTEKEINNGEFTSIKTIVQRHHAELLGLIAKELAIDTIEDIEDFELILYDHNASTLGGFNDEFVFSGRLDNLTSCFTSMHGLTLAADTEIDRESGIRLMACFDHEEIGSSSAQGADSNFLPNILERLSILKGDGSDQTKPLFHSAILETSAKSFFLSSDVAHAVHPNYANKYESQHKPLLGGGPVIKINANQRYMTNSPGLVLVKRLAEAAKVPLQLFVVANDSPCGSTIGPILASKTGIRTLDLGNPVLSMHSIRETGGSADLEFQIKLFKEFFERYTSIESEIVV” the “soluble on expression in E. coli” value was “not soluble”.
With “MSLDKIKAVIFDMDGVLIDAKEWHYEALNKALRLFGFEISRYDHLVTFDGLPTAKKLEMMTVERGLPKSLHQLINDMKQIYTMEYVYMKCKPLFVHQYALSRLKSEGFRLALASNSVRVTIDMMMEKADLNQYLDFSLSNQDVKKSKPDPEIYITAINRLGLSPEECLVVEDNQNGVKAALASGANLLKVETINDVTYSNIINRINEIENNIEGHHHHHH” the “soluble on expression in E. coli” value was “soluble”.
With “MQQNTSLYDSLNVTAAASTSEIKKAYRNAALKYHPDKNNHTEESKRKFQEICQAYEILKDNRLRALYDQYGTTDEVLIQEQQAQAQRQQAGPFSSSSNFDTEAMSFPDLSPGDLFAQFFNSSATPSSNGSKSSFNFSFNNSSTPSFSFVNGSGVNNLYSSSAKYNSNDEDHHLDRGPDIKHNLKCTLKELYMGKTAKLGLNRTRICSVCDGHGGLKKCTCKTCKGQGIQTQTRRMGPLVQSWSQTCADCGGAGVFVKNKDICQQCQGLGFIKERKILQVTVQPGSCHNQLIVLTGEGDEVISTKGGGHEKVIPGDVVITILRLKDPNFQVINYSNLICKKCKIDFMTSLCGGVVYIEGHPSGKLIKLDIIPGEILKPGCFKTVEDMGMPKFINGVRSGFGHLYVKFDVTYPERLEPENAKKIQNILANDKYIKAERSTMETADSDCYCDLEKSYDSVEEHVLSSFEAPNLNNEVIEDDDLGDLINERDSRKRNNRRFDESNINNNNETKRNKYSSPVSGFYDHDINGY” the “soluble on expression in E. coli” value was “not soluble”.
With “MTATSSPTTRFTDRVVLITGGGSGLGRATAVRLAAEGAKLSLVDVSSEGLEASKAAVLETAPDAEVLTTVADVSDEAQVEAYVTATTERFGRIDGFFNNAGIEGKQNPTESFTAAEFDKVVSINLRGVFLGLEKVLKIMREQGSGMVVNTASVGGIRGIGNQSGYAAAKHGVVGLTRNSAVEYGRYGIRINAIAPGAIWTPMVENSMKQLDPENPRKAAEEFIQVNPSKRYGEAPEIAAVVAFLLSDDASYVNATVVPIDGGQSAAY” the “soluble on expression in E. coli” value was “soluble”.
With “MSDPHQSQQLVTAGTALSEASAAAVLVHGRGATARSIVQMGAEFQQDGLALLAPQAARNTWYPNSFLSPVEQNEPGRSSGLQAIEDAVTKAAEAGIPTDHVLILGFSQGACLASEFVARNPQRYGGLVALSGGLIGESIDESEYEGDIEETPVFLGCSNVDPHIPEERVHVTASVFERLNGDVEERIYEGMGHGVNEDELAYVSSLTAGLVN” the “soluble on expression in E. coli” value was “not soluble”.

From the DeepSol protein solubility set
